Reference: patent publication US20190142860A1, “NUCLEIC ACID BASED TIA-1 INHIBITORS” (Aquinnah Pharmaceuticals, Inc., priority 2015, published 2019)

Tests used:
[1] = biological target: Nucleolysin TIA-1 (endogenous mouse TIA1) (mouse) (UniProt P52912); test: TIA1 IP-MS, WT1 cortex
[2] = biological target: Nucleolysin TIA-1 (endogenous mouse TIA1) (mouse) (UniProt P52912); test: TIA1 IP-MS, WT2 cortex
[3] = biological target: Nucleolysin TIA-1 (endogenous mouse TIA1) (mouse) (UniProt P52912); test: TIA1 IP-MS, WT3 cortex
[4] = biological target: Nucleolysin TIA-1 (endogenous mouse TIA1) (mouse) (UniProt P52912); test: TIA1 IP-MS, tau KO 1 cortex
[5] = biological target: Nucleolysin TIA-1 (endogenous mouse TIA1) (mouse) (UniProt P52912); test: TIA1 IP-MS, tau KO 2 cortex
[6] = biological target: Nucleolysin TIA-1 (endogenous mouse TIA1) (mouse) (UniProt P52912); test: TIA1 IP-MS, tau KO 3 cortex

Sequence of UniProt P52912 (P52912 whole entry): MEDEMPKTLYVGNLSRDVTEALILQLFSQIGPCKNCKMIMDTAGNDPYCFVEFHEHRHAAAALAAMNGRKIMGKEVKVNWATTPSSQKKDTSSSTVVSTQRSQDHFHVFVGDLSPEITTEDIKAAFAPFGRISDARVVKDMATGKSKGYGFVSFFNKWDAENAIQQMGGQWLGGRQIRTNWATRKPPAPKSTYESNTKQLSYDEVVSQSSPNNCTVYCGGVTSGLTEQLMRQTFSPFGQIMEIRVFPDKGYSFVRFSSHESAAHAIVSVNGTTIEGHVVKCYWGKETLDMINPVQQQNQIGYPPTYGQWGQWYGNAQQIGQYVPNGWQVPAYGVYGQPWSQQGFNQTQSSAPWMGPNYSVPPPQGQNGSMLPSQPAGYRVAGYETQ

| Substance | total ion current (normalized to TIA1 = 1000) [1] | total ion current (normalized to TIA1 = 1000) [2] | total ion current (normalized to TIA1 = 1000) [3] | total ion current (normalized to TIA1 = 1000) [4] | total ion current (normalized to TIA1 = 1000) [5] | total ion current (normalized to TIA1 = 1000) [6] |
| --- | --- | --- | --- | --- | --- | --- |
| Aspartate aminotransferase, cytoplasmic (from UniProt P05201 2-413) | 0 | 204 | 17 | 0 | 136 | 0 |
| Protein Golgb1 | 0 | 0 | 259 | 0 | 0 | 0 |
| Isoform M1 of Pyruvate kinase PKM (from UniProt P52480 1-531) | 0 | 1130 | 722 | 0 | 891 | 0 |
| PH and SEC7 domain-containing protein 3 (from UniProt Q2PFD7 1-1037) | 0 | 555 | 0 | 0 | 133 | 0 |
| Isoform 2 of Plasminogen activator inhibitor 1 RNA-binding protein (from UniProt Q9CY58 1-392) | 0 | 136 | 0 | 0 | 99.8 | 0 |
| Isoform 4 of Phosphatase and actin regulator 1 (from UniProt Q2M3X8 1-649) | 0 | 48.2 | 0 | 0 | 0 | 0 |
| Glutathione S-transferase Mu 1 (from UniProt P10649 2-218) | 0 | 286 | 57.4 | 0 | 91.1 | 0 |
| Isoform 2 of ATP-dependent 6-phosphofructokinase, muscle type (from UniProt P47857 1-850) | 0 | 62.9 | 36.3 | 0 | 75.8 | 0 |
| Cluster of Ras-related protein Rab-5C (from UniProt P35278 1-216) | 0 | 210 | 337 | 0 | 213 | 0 |
| Isoform 2 of Phosphatidylinositol-binding clathrin assembly protein (from UniProt Q7M6Y3 2-597) | 0 | 20.1 | 0 | 0 | 31.4 | 0 |
| Isocitrate dehydrogenase [NAD] subunit, mitochondrial (from UniProt Q91VA7 34-384) | 0 | 110 | 0 | 0 | 29.9 | 0 |

Next, values leading:

| total ion current (normalized to TIA1 = 1000) [1] | total ion current (normalized to TIA1 = 1000) [2] | total ion current (normalized to TIA1 = 1000) [3] | total ion current (normalized to TIA1 = 1000) [4] | total ion current (normalized to TIA1 = 1000) [5] | total ion current (normalized to TIA1 = 1000) [6] | Substance |
| --- | --- | --- | --- | --- | --- | --- |
| 0 | 204 | 54.8 | 0 | 26.9 | 0 | Succinyl-CoA ligase [ADP/GDP-forming] subunit alpha, mitochondrial (from UniProt Q9WUM5 35-346) |
| 0 | 165 | 0 | 0 | 138 | 0 | Synaptosomal-associated protein 25 (from UniProt P60879 1-206) |
| 0 | 78.7 | 0 | 0 | 0 | 0 | Protein kinase C epsilon type (from UniProt P16054 1-737) |
| 8.5 | 0 | 0 | 0 | 0 | 0 | Ketimine reductase mu-crystallin (from UniProt O54983 1-313) |
| 2.62 | 76.3 | 45.1 | 8.48 | 72.5 | 0 | Putative adenosylhomocysteinase 3 (from UniProt Q68FL4 2-613) |
| 0 | 74.2 | 0 | 0 | 31 | 0 | Coronin-1A (from UniProt O89053 2-461) |
| 0 | 61.7 | 86.3 | 0 | 49 | 0 | Succinyl-CoA ligase [ADP-forming] subunit beta, mitochondrial (from UniProt Q9Z2I9 54-463) |
| 0 | 20.2 | 0 | 0 | 67.1 | 0 | ATP-dependent 6-phosphofructokinase, platelet type (from UniProt Q9WUA3 1-784) |
| 0 | 86 | 0 | 0 | 15.7 | 0 | 28 kDa heat- and acid-stable phosphoprotein (from UniProt Q3UHX2 1-181) |
| 0 | 65.8 | 0 | 0 | 0 | 0 | Serine--tRNA ligase, cytoplasmic (from UniProt P26638 1-512) |
| 0 | 80.5 | 0 | 0 | 28.4 | 0 | Isoform 2 of Cytosol aminopeptidase (from UniProt Q9CPY7 1-488) |
| 0 | 80.5 | 45.6 | 0 | 16.9 | 0 | Ubiquitin thioesterase OTUB1 (from UniProt Q7TQI3 2-271) |
| 0 | 107 | 0 | 0 | 31.3 | 0 | Dihydrolipoyl dehydrogenase, mitochondrial (from UniProt O08749 36-509) |
| 0 | 98.9 | 0 | 10.5 | 0 | 474 | Nascent polypeptide-associated complex subunit alpha, muscle-specific form (from UniProt P70670 1-2187) |
| 0 | 147 | 0 | 0 | 76.2 | 0 | Cleavage and polyadenylation specificity factor subunit 6 (from UniProt Q6NVF9 1-551) |
| 11.1 | 53.3 | 0 | 11.7 | 17 | 0 | Heterogeneous nuclear ribonucleoprotein U-like protein 2 (from UniProt Q00PI9 1-745) |
